Assay results: PMC8646660 (EMBO Molecular Medicine, 2021)

Target: SARS-CoV-2 S receptor-binding domain (RBD), biotinylated (SARS-CoV-2, UniProt P0DTC2, biotin on the Avi tag (enzymatic, BirA))
Assay: cell-based or functional assay

B1: FD20 (IgG format) (antibody, V domains shown)
VH: QVQLQQSGAEVKKPGSSVKVSCKASGGTFSSYAFSWVRQAPGQGLEWMGRIIPILGIANYAQKFQGRVTITADISTSTAYMALSSLRSEDTAVYYCAKVEVNIGMDDYYYYYGMDVWGQGTTVTVSS
VL: not shown
neutralisation of SARS-CoV-2 pp harbouring wild-type S, IC50 (fold in brackets): 12 nM
